Test results as given in the supplement of paper PMC9112550, “Optimization of the antimicrobial peptide Bac7 by deep mutational scanning” (BMC Biology, 2022).

Each sequence was assayed on Escherichia coli TOP10 (assay: shrunken log2 fold change of peptide-encoding DNA abundance (4.5 h post-induction vs induction); higher = less antimicrobial activity (less host growth inhibition)). Conditions: time post-induction: 4.5 h; library: site-saturation at positions 5, 18, 19, 20.
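Note: peptides expressed intracellularly from a pBAD plasmid library in pooled LB shake-flask culture, induced with 0.3% L-arabinose, DNA abundance read by NGS, three biological replicates, DESeq2 with apeglm shrinkage.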

RRIRARPPRLPRPRPRPQWRPRP was tested. Which “shrunken log2 fold change” value did it give?
Its value is 0.218.

With RRIRARPPRLPRPRPRPRAFPRP as the sequence, how does the “shrunken log2 fold change” value read?
The value was 0.398.

Which “shrunken log2 fold change” value does the source give for RRIRARPPRLPRPRPRPRAIPRP here?
The value was 0.358.

Which “shrunken log2 fold change” value does the source give for RRIRARPPRLPRPRPRPRCHPRP here?
The value was 0.308.

How did the “shrunken log2 fold change” value turn out when RRIRARPPRLPRPRPRPRCMPRP was run?
The value was 1.62.

How did the “shrunken log2 fold change” value turn out when RRIRARPPRLPRPRPRPRCQPRP was run?
Its value is 0.316.

For RRIRARPPRLPRPRPRPRDPPRP, which “shrunken log2 fold change” value is on record?
Its value is 0.948.

With RRIRARPPRLPRPRPRPREHPRP as the sequence, how does the “shrunken log2 fold change” value read?
The value was 0.376.

RRIRARPPRLPRPRPRPRFPPRP was tested. Which “shrunken log2 fold change” value did it give?
Its value is 0.421.

For RRIRARPPRLPRPRPRPRFQPRP, which “shrunken log2 fold change” value is on record?
Its value is 0.466.

RRIRARPPRLPRPRPRPRGYPRP was tested. Which “shrunken log2 fold change” value did it give?
Its value is 0.166.

With RRIRARPPRLPRPRPRPRHHPRP as the sequence, how does the “shrunken log2 fold change” value read?
The value was 0.0585.

With RRIRARPPRLPRPRPRPRHVPRP as the sequence, how does the “shrunken log2 fold change” value read?
Its value is 0.162.

How did the “shrunken log2 fold change” value turn out when RRIRARPPRLPRPRPRPRIFPRP was run?
The value was 0.213.

RRIRARPPRLPRPRPRPRKAPRP was tested. Which “shrunken log2 fold change” value did it give?
Its value is 0.0975.

With RRIRARPPRLPRPRPRPRKPPRP as the sequence, how does the “shrunken log2 fold change” value read?
The value was 0.114.

How did the “shrunken log2 fold change” value turn out when RRIRARPPRLPRPRPRPRLIPRP was run?
The value was 0.235.

With RRIRARPPRLPRPRPRPRMDPRP as the sequence, how does the “shrunken log2 fold change” value read?
Its value is 0.356.

For RRIRARPPRLPRPRPRPRMTPRP, which “shrunken log2 fold change” value is on record?
Its value is 1.04.

Which “shrunken log2 fold change” value does the source give for RRIRARPPRLPRPRPRPRMVPRP here?
The value was 0.686.

For RRIRARPPRLPRPRPRPRNMPRP, which “shrunken log2 fold change” value is on record?
The value was 0.263.

For RRIRARPPRLPRPRPRPRNNPRP, which “shrunken log2 fold change” value is on record?
Its value is -0.101.

Which “shrunken log2 fold change” value does the source give for RRIRARPPRLPRPRPRPRNYPRP here?
Its value is 0.0668.

For RRIRARPPRLPRPRPRPRPEPRP, which “shrunken log2 fold change” value is on record?
The value was 0.686.

With RRIRARPPRLPRPRPRPRPTPRP as the sequence, how does the “shrunken log2 fold change” value read?
Its value is 0.867.

How did the “shrunken log2 fold change” value turn out when RRIRARPPRLPRPRPRPRQGPRP was run?
Its value is 0.605.

Which “shrunken log2 fold change” value does the source give for RRIRARPPRLPRPRPRPRRKPRP here?
The value was 0.644.

RRIRARPPRLPRPRPRPRRWPRP was tested. Which “shrunken log2 fold change” value did it give?
The value was 0.739.

Which “shrunken log2 fold change” value does the source give for RRIRARPPRLPRPRPRPRSGPRP here?
The value was 0.537.

Which “shrunken log2 fold change” value does the source give for RRIRARPPRLPRPRPRPRSIPRP here?
The value was -0.0101.

Which “shrunken log2 fold change” value does the source give for RRIRARPPRLPRPRPRPRSMPRP here?
Its value is 0.42.

How did the “shrunken log2 fold change” value turn out when RRIRARPPRLPRPRPRPRSNPRP was run?
The value was 0.0752.

Which “shrunken log2 fold change” value does the source give for RRIRARPPRLPRPRPRPRSQPRP here?
Its value is 0.00929.

Which “shrunken log2 fold change” value does the source give for RRIRARPPRLPRPRPRPRTDPRP here?
The value was 0.465.

With RRIRARPPRLPRPRPRPRVIPRP as the sequence, how does the “shrunken log2 fold change” value read?
Its value is -0.0156.

Which “shrunken log2 fold change” value does the source give for RRIRARPPRLPRPRPRPRVYPRP here?
Its value is 0.441.

For RRIRARPPRLPRPRPRPRWKPRP, which “shrunken log2 fold change” value is on record?
Its value is 0.462.

With RRIRARPPRLPRPRPRPSAMPRP as the sequence, how does the “shrunken log2 fold change” value read?
The value was 0.38.

Which “shrunken log2 fold change” value does the source give for RRIRARPPRLPRPRPRPSDCPRP here?
The value was -0.164.

Which “shrunken log2 fold change” value does the source give for RRIRARPPRLPRPRPRPSDKPRP here?
Its value is -0.197.

How did the “shrunken log2 fold change” value turn out when RRIRARPPRLPRPRPRPSDNPRP was run?
Its value is -0.183.

For RRIRARPPRLPRPRPRPSDQPRP, which “shrunken log2 fold change” value is on record?
The value was -0.0615.

For RRIRARPPRLPRPRPRPSFPPRP, which “shrunken log2 fold change” value is on record?
The value was -0.0947.

RRIRARPPRLPRPRPRPSFVPRP was tested. Which “shrunken log2 fold change” value did it give?
The value was 0.0934.

With RRIRARPPRLPRPRPRPSIMPRP as the sequence, how does the “shrunken log2 fold change” value read?
The value was -0.178.

Which “shrunken log2 fold change” value does the source give for RRIRARPPRLPRPRPRPSLYPRP here?
Its value is 0.0269.

How did the “shrunken log2 fold change” value turn out when RRIRARPPRLPRPRPRPSNAPRP was run?
The value was 0.133.

Which “shrunken log2 fold change” value does the source give for RRIRARPPRLPRPRPRPSNSPRP here?
The value was -0.156.

With RRIRARPPRLPRPRPRPSQAPRP as the sequence, how does the “shrunken log2 fold change” value read?
Its value is 0.0359.

RRIRARPPRLPRPRPRPSQRPRP was tested. Which “shrunken log2 fold change” value did it give?
The value was 0.373.

Which “shrunken log2 fold change” value does the source give for RRIRARPPRLPRPRPRPSSCPRP here?
Its value is -0.0288.

For RRIRARPPRLPRPRPRPSSLPRP, which “shrunken log2 fold change” value is on record?
The value was 0.00294.

For RRIRARPPRLPRPRPRPSSMPRP, which “shrunken log2 fold change” value is on record?
Its value is -0.144.

How did the “shrunken log2 fold change” value turn out when RRIRARPPRLPRPRPRPSVQPRP was run?
Its value is 0.629.

RRIRARPPRLPRPRPRPTADPRP was tested. Which “shrunken log2 fold change” value did it give?
Its value is 0.83.

For RRIRARPPRLPRPRPRPTARPRP, which “shrunken log2 fold change” value is on record?
The value was 0.874.

For RRIRARPPRLPRPRPRPTCIPRP, which “shrunken log2 fold change” value is on record?
Its value is 0.331.

With RRIRARPPRLPRPRPRPTCWPRP as the sequence, how does the “shrunken log2 fold change” value read?
Its value is 0.651.

Which “shrunken log2 fold change” value does the source give for RRIRARPPRLPRPRPRPTDDPRP here?
Its value is 0.332.

How did the “shrunken log2 fold change” value turn out when RRIRARPPRLPRPRPRPTFEPRP was run?
Its value is 0.42.

Which “shrunken log2 fold change” value does the source give for RRIRARPPRLPRPRPRPTFRPRP here?
The value was 0.323.

With RRIRARPPRLPRPRPRPTFTPRP as the sequence, how does the “shrunken log2 fold change” value read?
The value was 0.51.

Which “shrunken log2 fold change” value does the source give for RRIRARPPRLPRPRPRPTFYPRP here?
Its value is -0.00745.

How did the “shrunken log2 fold change” value turn out when RRIRARPPRLPRPRPRPTGAPRP was run?
Its value is 0.906.

How did the “shrunken log2 fold change” value turn out when RRIRARPPRLPRPRPRPTGPPRP was run?
The value was 0.284.

RRIRARPPRLPRPRPRPTGYPRP was tested. Which “shrunken log2 fold change” value did it give?
The value was 0.191.

How did the “shrunken log2 fold change” value turn out when RRIRARPPRLPRPRPRPTIAPRP was run?
Its value is 0.687.

With RRIRARPPRLPRPRPRPTILPRP as the sequence, how does the “shrunken log2 fold change” value read?
Its value is 0.344.

Which “shrunken log2 fold change” value does the source give for RRIRARPPRLPRPRPRPTKAPRP here?
Its value is 0.437.

With RRIRARPPRLPRPRPRPTKDPRP as the sequence, how does the “shrunken log2 fold change” value read?
The value was 0.144.

With RRIRARPPRLPRPRPRPTKMPRP as the sequence, how does the “shrunken log2 fold change” value read?
The value was 0.319.

With RRIRARPPRLPRPRPRPTKVPRP as the sequence, how does the “shrunken log2 fold change” value read?
The value was 0.339.

RRIRARPPRLPRPRPRPTLCPRP was tested. Which “shrunken log2 fold change” value did it give?
Its value is 0.392.

RRIRARPPRLPRPRPRPTLNPRP was tested. Which “shrunken log2 fold change” value did it give?
Its value is 0.496.

With RRIRARPPRLPRPRPRPTNFPRP as the sequence, how does the “shrunken log2 fold change” value read?
The value was -0.0105.
